Measurements taken from patent US9675625B2, “Medicament comprising recombinant antibody against chemokine receptor CCR4” (KYOWA HAKKO KIRIN CO., LTD., priority 2003, dated 2017).
Where “and” joins values, the source holds several entries; their conditions need not be identical. Equal entries are not always repeated.

Key:
CCRF-CEM cells [1] = assay: antitumor effect of KM 2760 and vincristine in combination, CCRF-CEM cells grafted in nude mouse; format: in vivo, Balb/c nude mouse; conditions: Day 10; KM 2760 800 μg per mouse Day 0 and Day 4; VCR 0.55 mg/kg Day 0; tail vein
CCRF-CEM cells [2] = assay: antitumor effect of KM 2760 and cyclophosphamide in combination, CCRF-CEM cells grafted in nude mouse; format: in vivo, Balb/c nude mouse; conditions: Day 4; KM 2760 800 μg per mouse Day 0 and Day 4; CPA 65 mg/kg Day 0; tail vein
Method: CCRF-CEM cells (human T cell leukemia cell line) were suspended in RPMI 1640 medium (Gibco BRL) at a concentration of 2×10^8 cells/mL, and 100 μL of the suspension was grafted intradermally in the right flank of Balb/c nude mice (Nippon Crea, male). On Day 18 after the cell grafting, a diameter of a tumor was measured with calipers, and a tumor volume was calculated using formula 2 in Example 2.
Individuals having the tumor volume within the range of 116 to 349 mm^3 (on average 219 mm^3) were selected, and grouped such that the average tumor volume to be almost the same. Each of the following agent A to D was administered to the mice. Incidentally, the grouping day was defined as Day 0.
The experiment was conducted with groups each consisting of five mice. Each of the agents was diluted with a physiological saline (Otsuka Seiyaku), and the diluent was administered from the tail vein. On Day 4, the tumor volume was measured. The antitumor effect was evaluated by comparing an average values of a tumor volume change (V/V0) on each measurement day when the tumor volume on Day 0 in each group was defined as V0.

CCRF-CEM cells [3] = assay: antitumor effect of KM 2760 and etoposide in combination, CCRF-CEM cells grafted in nude mouse; format: in vivo, Balb/c nude mouse; conditions: Day 7; KM 2760 800 μg per mouse Day 0 and Day 4; VP-16 10 mg/kg Day 0 to Day 4; tail vein
Method: (§1) CCRF-CEM cells (human T cell leukemia cell line) were suspended in RPMI 1640 medium (Gibco BRL) at a concentration of 2×10^8 cells/mL, and 100 μL of the suspension was grafted into the ventral skin of Balb/c nude mice (Nippon Crea, male). On Day 17 after the cell grafting, a diameter of a tumor was measured with calipers, and a tumor volume was calculated using formula 2 in Example 2.
Individuals having the tumor volume within the range of from 121 to 348 mm^3 (on average 195 mm^3) were selected, and grouped such that the average tumor volume to be almost the same. Each of the following agents A to D was then administered to the mice. Incidentally, the grouping day was defined as Day 0.
(§2) B. Group of administering KM 2760 alone: 800 μg of KM2760 was administered per mouse on Day 0 and Day 4.
C. Group of administering etoposide (hereinafter referred to as VP-16; Lastet injection, Nippon Kayaku Co., Ltd.) alone: 10 mg/kg of VP-16 was administered per mouse for 5 days from Day 0 to Day 4. […]
The experiment was conducted with groups each consisting of five mice. […] On Day 7, the tumor volume was measured. The antitumor effect was evaluated by comparing average values of a tumor volume change (V/V0) on Day 7 when the tumor volume on Day 0 in each group was defined as V0.

CCRF-CEM cells [4] = assay: antitumor effect of KM 2760 and Methotrexate in combination, CCRF-CEM cells grafted in nude mouse; format: in vivo, Balb/c nude mouse; conditions: Day 7; KM 2760 800 μg per mouse Day 0 and Day 4; MTX 15 mg/kg Day 0 to Day 4; tail vein
Method: as §1, with “(CLEA Japan Inc.” for “(Nippon Crea,”
Individuals having the tumor volume within the range of 121 to 348 mm^3 (on average 195 mm^3) were selected, and grouped such that the average tumor volume to be almost the same. Each of the following agents A to D was administered to the mice. Incidentally, the grouping day was defined as Day 0.
as §2
C. Group of administering Methotrexate (hereinafter referred to as MTX; Methotrexate injection solution, Nippon Weisledary K.K.) alone: 15 mg/kg of MTX was administered per mouse for 5 days from Day 0 to Day 4. […]
The experiment was conducted with groups each consisting of five mice. […] On Day 7, the tumor volume was measured. The antitumor effect was evaluated by comparing average values of a tumor volume change (V/V0) when the tumor volume on Day 0 in each group was defined as V0.

CCR4/EL4 cells [5] = assay: antitumor effect of KM 2760 and G-CSF in combination, CCR4/EL4 cells grafted into ventral skin of C57BL/6 mice; format: in vivo, C57BL/6 mouse
Method: CCR4/EL4 cells (WO 01/64754) were suspended, in RPMI 1640 medium (Gibco BRL) at a concentration of 1×10^6 cells/mL, and 100 μL of the suspension was grafted into the right ventral skin of C57BL/6 mice (Nippon Crea, male, 8 weeks old). After, mice were grouped into A to D, each of the agents A to D were administered to each mouse. Incidentally, the day on which the tumor was grafted was defined as Day 0.
B. Group of administering KM 2760 alone: 100 μg of KM2760 was intravenously administered per mouse on Day 0 and Day 4.
C. Group of administering G-CSF alone: 10 μg of G-CSF (Neuup Injection 100, manufactured by Kyowa Hakko Kogyo Co., Ltd.) was subcutaneously administered per mouse once a day for 10 days from 4 days before the tumor grafting (hereinafter referred to as Day-4) to Day 5.
The experiment was conducted with group A consisting of 10 mice and groups B, C and D each consisting of 7 mice. […] Each of the diluent was administered at 100 μL. A diameter of a tumor was measured with calipers chronologically from Day 0 of each group. A tumor volume was calculated using formula 2 in Example 2.
Since the tumor death of the mouse was started in group A from Day 17 on, the evaluation of the tumor volume was finished on Day 14.
The antitumor effect (T/C value) in each group was evaluated by calculation using the following formula 3 for comparison between the average value of the tumor volume in group A and the average values of the tumor volume in each group on the final evaluation day (Day 14). (T/C value)=(average value of tumor volume in each group on Day 14)/average value of tumor volume in group A on Day 14) (Formula 3)

CCR4/EL4 cells [6] = test system: CCR4/EL4 cells
Method: CCR4/EL4 cells (WO 01/64754) were suspended in RPMI 1640 medium (manufactured by Gibco BRL) at a concentration of 1×10^5 cells/mL, and 200 μL of the suspension was grafted into the peritoneal cavity of C57BL/6 mice (CLEA Japan Inc., male, 8 weeks old). After, mice was grouped into A to D, and each of the agents A to D was administered to each mouse. The day on which the tumor was grafted was defined as Day 0.
B. Group of administering M-CSF alone: 100 μg of M-CSF (Leucoprol, manufactured by Kyowa Hakko Kogyo Co., Ltd.) was intraperitoneally administered per mouse twice a day from Day-3 to Day-1 and once a day on Day 0, seven times in total.
The experiment was conducted with groups each consisting of 8 mice. […] The antitumor effect was evaluated by a ratio of average values of the number of survival days of mice in each group to an average value of the number of survival days of mice in the negative control group (hereinafter referred to as a life prolongation ratio).

[7] = KM 2760 50 μg i.p. Day 0, M-CSF 100 μg i.p. seven times

B1: KM 2760: anti-CCR4 human chimeric antibody KM 2760 (FERM BP-7054, WO 01/64754) (antibody, V domains shown)
VH: EVQLVESGGDLMKPGGSLKISCAASGFIFSNYGMSWVRQTPDMRLEWVATISSASTYSYYPDSVKGRFTISRDNAENSLYLQMNSLRSEDTGIYYCGRHSDGNFAFGYWGRGTLVTVSA
VL: DVLMTQTPLSLPVSLGDQASISCRSSRNIVHINGDTYLEWYLQRPGQSPKLLIYKVSNRFSGVPDRFSGSGSGTDFTLKISRVEAEDLGVYYCFQGSLLPWTFGGGTRLEIRR
B1 was tested, and the “T/C (V/V0 of group divided by V/V0 of negative control group)” value (CCRF-CEM cells [1]) was 0.43, the “T/C (V/V0 of group divided by V/V0 of negative control group)” value (CCRF-CEM cells [2]) was 0.80 and the “T/C (V/V0 of group divided by V/V0 of negative control group)” value (CCRF-CEM cells [3]) was 0.65. For the same molecule, the “T/C (V/V0 of group divided by V/V0 of negative control group)” value (CCRF-CEM cells [4]) was 0.65, the “T/C value (average tumor volume of group / group A)” value (CCR4/EL4 cells [5]; Day 14, KM 2760 100 μg per mouse i.v. Day 0 and Day 4, G-CSF 10 μg per mouse s.c. once a day Day-4 to Day 5) was 0.48 and the “antitumor effect compared to untreated group A (tumor volume)” value (CCR4/EL4 cells [5]; FIG. 6, up to Day 14) was “low”. For the same molecule, the “Number of survival days (each mouse)” value (CCR4/EL4 cells [6]; 8 mice per group, KM 2760 50 μg per mouse i.p. Day 0, M-CSF 100 μg per mouse i.p. seven times Day-3 to Day 0, observation to Day 50) was 19 days and 21 days (3×) and 22 days and 24 days and 26 days and 27 days, the “Average number of survival days” value (CCR4/EL4 cells [6]; [7]) was 22.9 days and the “Life prolongation ratio (average survival days of group / negative control group)” value (CCR4/EL4 cells [6]; [7]) was 1.19. The “antitumor effect in comparison with untreated Group A (survival)” value (CCR4/EL4 cells [6]; Table 7) was “low”.
